These results are taken from patent US20190367612A1 (Daiichi Sankyo, published 2019).

For orientation: EC50 (read off the curve) means the concentration at which the effect is half-maximal. Usually Kd stands for the equilibrium constant for the complex coming apart.

Bridge positions count the residues as written; N and C are the ends. Ends that are not written are not given here. * marks the point of attachment. Biotin = O=C1N[C@H]2[C@H](CS[C@H]2CCCCC(=O)*)N1

The labels stand for the following.
B1: human GPRC5D amino-terminal peptide MYKDCIESTGDYFLLCDAEGPWGIILE-K(Biotin)-NH2, having an intramolecular disulfide bond (peptide)
peptide: MYKDCIESTGDYFLLCDAEGPWGIILEK(Biotin)-NH2
modifications: disulfide 5-16 (inferred)
notes: Peptide Institute synthetic peptide; also called amino-terminal peptide of biotinylated human GPRC5D (disulfide bond present)

Experiment [1] has as its target T1, rat anti-GPRC5D antibody 2A4.
T1 construct: Rat IgG2b, kappa chain
The experiment in a line: flow cytometry competition on KMS-34 cells: the peptide with the intramolecular disulfide bond is added together with a fixed amount of 2A4; readout: binding of 2A4 to human GPRC5D on the cells. Here is the method: (§1) Human multiple myeloma cell line KMS-34 cells expressing GPRC5D were adjusted to a concentration of 2×10⁶ cells/mL with PBS containing 5% FBS, inoculated in an amount of 100 μL/well to a 96-well U-bottomed microplate, and centrifuged to remove a supernatant. Each rat anti-GPRC5D antibody (2A4, 2B1, and 7B4) adjusted to 7.5 μg/mL in Example 1)-7, or Rat IgG2b isotype control antibody (Medical & Biological Laboratories Co., Ltd. (MBL)) was added thereto in an amount of 100 μL/well. The two types of peptides used in Example 2)-2-1 were each adjusted to 17 ng/mL to 34 μg/mL with PBS and added in an amount of 100 μL/well to the wells containing the antibody dilution, and the plate was left standing at 4° C. for 1 hour. The cells were washed twice with PBS containing 5% FBS. Then, PE Goat Anti-Rat Ab (Becton, Dickinson and Company) diluted 100-fold with PBS containing 5% FBS was added thereto in an amount of 100 μL/well, and the plate was left standing at 4° C. for 1 hour. The cells were washed twice with PBS containing 5% FBS and then resuspended in PBS containing 5% FBS, followed by detection using a flow cytometer (FACSCanto™ II; Becton, Dickinson and Company). The data was analyzed using Flowjo (Tree Star, Inc.). The PE fluorescence intensity of the cell fraction was plotted to a histogram, and the mean fluorescence intensity (MFI) was calculated. […]
A general note: Flow cytometry measures light scatter and fluorescence of single cells or particles in a stream.

In experiment [2] the target is T2, rat anti-GPRC5D antibody 2B1.
T2 construct: Rat IgG2b, kappa chain
Nature of the experiment: flow cytometry competition on KMS-34 cells: the peptide with the intramolecular disulfide bond is added together with a fixed amount of 2B1; blocked: binding of 2B1 to human GPRC5D on the cells. Here is the method:
as §1

Experiment [3] addresses T3, rat anti-GPRC5D antibody 7B4.
T3 construct: Rat IgG2b, kappa chain
The experiment in a line: flow cytometry competition on KMS-34 cells: the peptide with the intramolecular disulfide bond is added together with a fixed amount of 7B4; readout: binding of 7B4 to human GPRC5D on the cells. Here is the method: as §1

Experiment [4] has as its target T4, human GPRC5D (human, UniProt Q9NZD1 1-345).
T4 construct: whole, on cells; also called hGPRC5D; G-protein coupled receptor family C group 5 member D
The experiment in a line: flow cytometry on KMS-34 cells (endogenous human GPRC5D), anti-FLAG antibody and Alexa 488 anti-mouse IgG detection. As for the experimental part: The KMS-34 cells were recovered by centrifugation, washed twice with a FACS buffer (PBS containing 0.5% BSA and 2 mM EDTA, pH 7.4), and then suspended in the same solution as above. The C2037, C3048, C3015 or C3022 scFv was added to the obtained cell suspension, and the mixture was left standing at 4° C. for 2 hours. After washing twice with a FACS buffer, the cells were suspended by the addition of an anti-FLAG antibody (Sigma-Aldrich Corp.), and the mixture was further left standing at 4° C. for 1 hour. After washing twice with a FACS buffer, the cells were suspended by the addition of Alexa 488-labeled anti-mouse IgG antibody (Jackson ImmunoResearch Laboratories, Inc.), and the mixture was further left standing at 4° C. for 1 hour. After washing twice with a FACS buffer, the cells were fixed in 1% PFA (prepared from a 32% paraformaldehyde solution (Electron Microscopy Sciences)), followed by detection using a flow cytometer (FACSCanto™ II; Becton, Dickinson and Company). The data was analyzed using Flowjo (Tree Star, Inc.).

Experiment [5] addresses B1. Nature of the experiment: SPR (Biacore T200), kinetic analysis: biotinylated amino-terminal peptide of human GPRC5D on Sensor Chip CAP, scFv as analyte. As for the experimental part:
The binding activity of the anti-GPRC5D antibodies against the amino-terminal peptide of human GPRC5D was tested by SPR using Biacore T200. The amino-terminal peptide of biotinylated human GPRC5D diluted to 2 nM with HBS-EP+ (manufactured by GE Healthcare Bio-Sciences Corp.) was immobilized on Sensor Chip CAP (manufactured by GE Healthcare Bio-Sciences Corp.) by contact at a rate of 10 μL/min for 180 seconds. Then, Kd was calculated by kinetic analysis using a plurality of concentrations of each scFv diluted with HBS-EP+ as analytes.
Background: SPR reads the build-up and loss of mass on a sensor chip optically.

The target in experiment [6] is B1. The experiment in a line: ELISA, chemiluminescence: biotinylated amino-terminal peptide of human GPRC5D on NeutrAvidin, scFv detected with HRP anti-FLAG antibody. As for the experimental part: (§2) NeutrAvidin diluted to 1 μg/mL with PBS was added in an amount of 50 μL/well to 96-well Maxi-sorp plate (Black, Nunc/Thermo Fisher Scientific Inc.), and the plate was left standing overnight at 4° C. for immobilization. After washing three times with an ELISA buffer, the amino-terminal peptide of the biotinylated human or cynomolgus monkey GPRC5D (used in Example 10)-1) diluted to 1 μg/mL with PBS was added thereto, and the plate was shaken at room temperature for 1 hour. After washing three times with an ELISA buffer, the plate was blocked with Blocker Casein and washed three times with an ELISA buffer. Then, the C2037, C3048, C3015, or C3022 scFv was added to the plate and reacted at room temperature for 2 hours. After washing three times with an ELISA buffer, a horseradish peroxidase (HRP)-labeled anti-FLAG antibody diluted 5000-fold with an ELISA buffer was added thereto in an amount of 50 μL/well and reacted at room temperature for 1 hour. After washing five times with an ELISA buffer, SuperSignal Pico ELISA Chemiluminescent substrate was added. After 10 minutes, the chemiluminescence was measured using a plate reader.

Experiment [7] has as its target T5, amino-terminal peptide of cynomolgus monkey GPRC5D …(Biotin)-NH2 (cynomolgus monkey, C-terminal lysine carrying biotin, C-terminal amide).
T5 construct: also called amino-terminal peptide of biotinylated cynomolgus monkey GPRC5D
T5 peptide: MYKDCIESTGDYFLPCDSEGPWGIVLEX
Nature of the experiment: ELISA, chemiluminescence: biotinylated amino-terminal peptide of cynomolgus monkey GPRC5D on NeutrAvidin, scFv detected with HRP anti-FLAG antibody. Here is the method: as §2
Background: An ELISA detects its analyte on a solid surface through an enzyme-linked reagent.

The target of experiment [8] is T4, human GPRC5D. The experiment in a line: flow cytometry on KHM-1B cells (human GPRC5D), culture supernatant, PE anti-human IgG Fc, rMFI over human IgG isotype control. Here is the method: Human multiple myeloma cell line KHM-1B cells expressing GPRC5D were adjusted to a concentration of 2×10⁶ cells/mL with PBS containing 5% FBS, inoculated in an amount of 100 μL/well to a 96-well U-bottomed microplate, and centrifuged to remove a supernatant. The culture supernatant of each humanized anti-GPRC5D antibody obtained in Example 8)-3-1 or Human IgG isotype control antibody (Calbiochem/Merck Millipore Corp.) adjusted to 14 ng/mL to 30 μg/mL was added thereto in an amount of 100 μL/well, and the plate was left standing at 4° C. for 1 hour. The cells were washed twice with PBS containing 5% FBS. Then, R-Phycoerythrin AffiniPure F(ab′)2 Fragment Goat Anti-Human IgG, Fcγ Fragment Specific (Jackson ImmunoResearch Laboratories, Inc.) diluted 100-fold with PBS containing 5% FBS was added thereto in an amount of 100 μL/well, and the plate was left standing at 4° C. for 1 hour. The cells were washed twice with PBS containing 5% FBS and then resuspended in PBS containing 5% FBS, followed by detection using a flow cytometer (FACSCanto™ II; Becton, Dickinson and Company). The data was analyzed using Flowjo (Tree Star, Inc.). The PE fluorescence intensity of the cell fraction was plotted to a histogram, and the mean fluorescence intensity (MFI) was calculated. The MFI value of the control antibody was subtracted from the MFI value of the GPRC5D antibody to calculate a relative value of MFI (rMFI).

For experiment [9], the target named is T6, cynomolgus monkey GPRC5D (cynomolgus monkey).
T6 construct: whole, on cells; Stably expressed on KMS-11 cells (KMS-11_cGPRC5D); also called cGPRC5D
The experiment in a line: flow cytometry on KMS-11_cGPRC5D cells (cynomolgus monkey GPRC5D), PE anti-human IgG Fc detection, rMFI = MFI minus isotype control [label at the foot of D00092].

The target of experiment [10] is T7, mouse GPRC5D (mouse, UniProt Q9JIL6 1-344).
T7 construct: whole, on cells
T7 sequence (looked up): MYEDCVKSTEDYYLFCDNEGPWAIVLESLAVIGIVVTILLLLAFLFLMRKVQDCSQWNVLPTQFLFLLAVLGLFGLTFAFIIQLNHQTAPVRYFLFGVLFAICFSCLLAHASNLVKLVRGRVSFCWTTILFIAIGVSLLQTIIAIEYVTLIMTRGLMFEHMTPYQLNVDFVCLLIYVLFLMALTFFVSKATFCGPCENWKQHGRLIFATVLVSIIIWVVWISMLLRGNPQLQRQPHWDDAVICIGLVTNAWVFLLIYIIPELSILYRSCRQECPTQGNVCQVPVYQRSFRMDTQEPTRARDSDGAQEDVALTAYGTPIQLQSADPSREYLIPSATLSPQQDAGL
Nature of the experiment: flow cytometry, in the same way as in Example 5)-2.

Experiment [11] concerns the target T4, human GPRC5D. Nature of the experiment: flow cytometry on KHM-1B cells (human GPRC5D), PE anti-human IgG Fc, rMFI over human IgG isotype control.
The target in experiment [12] is T1, rat anti-GPRC5D antibody 2A4. The experiment in a line: flow cytometry competition on KMS-34 cells: the peptide without the intramolecular disulfide bond is added together with a fixed amount of 2A4; readout: binding of 2A4 to human GPRC5D on the cells. Here is the method: as §1
For experiment [13], the target named is T2, rat anti-GPRC5D antibody 2B1. Nature of the experiment: flow cytometry competition on KMS-34 cells: the peptide without the intramolecular disulfide bond is added together with a fixed amount of 2B1; blocked: binding of 2B1 to human GPRC5D on the cells. As for the experimental part:
as §1

In experiment [14] the target is T3, rat anti-GPRC5D antibody 7B4. Nature of the experiment: flow cytometry competition on KMS-34 cells: the peptide without the intramolecular disulfide bond is added together with a fixed amount of 7B4; readout: binding of 7B4 to human GPRC5D on the cells. As for the experimental part: as §1
T3 sequence (VH, as listed by the source, chain 1 of 2): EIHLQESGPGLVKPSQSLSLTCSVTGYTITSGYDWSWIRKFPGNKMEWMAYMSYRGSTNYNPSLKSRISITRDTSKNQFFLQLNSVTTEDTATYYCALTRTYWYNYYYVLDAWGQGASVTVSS
T3 sequence (VL, as listed by the source, chain 2 of 2): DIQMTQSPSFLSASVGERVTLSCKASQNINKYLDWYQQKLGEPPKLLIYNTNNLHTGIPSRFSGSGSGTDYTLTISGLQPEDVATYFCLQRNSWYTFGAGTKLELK

T1 sequence (VH, as listed by the source, chain 1 of 2): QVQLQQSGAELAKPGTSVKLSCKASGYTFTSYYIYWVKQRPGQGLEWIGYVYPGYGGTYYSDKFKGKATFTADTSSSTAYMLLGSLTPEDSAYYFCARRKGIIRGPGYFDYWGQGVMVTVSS
T1 sequence (VL, as listed by the source, chain 2 of 2): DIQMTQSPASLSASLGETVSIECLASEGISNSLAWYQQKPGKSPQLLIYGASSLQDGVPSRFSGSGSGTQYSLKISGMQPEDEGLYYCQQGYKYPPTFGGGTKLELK

Consider B1, for which the binding result in experiment [1] and in [3] was “no binding (tested: 5000 nM)” in each case. Moreover, in [2], the “IC50 (read off the curve)” value was roughly 50 nM.

B2: human antibody C3048 scFv (scFv)
scFv: QVQLVQSGAEVKKPGSSVKVSCKASGGTFSRYAISWVRQAPGQGLEWMGGIIPIFGTANYAQKFQGRVTITADQSTRTAYMDLGRLRSEDTAVYYCALEGFRDSLKRNPFDIWGQGTMVTVSSGGGGSGGGGSGGGGSQSVVTQPPSVSAAPGQKVTISCSGGTTNIGSNYVSWYQQLPGTAPKFLMYENNKRPSGIPDRFSGSKSGTSATLAITGLQTGDEATYYCSTWDSSLNTGLFGGGTKLTVL
notes: also called C3048 antibody scFv; not shown: FLAG and His tags at the carboxyl terminus
For the molecule B2, the entries for the “EC50 (read off the curve)” value in [4] and in [6] were roughly 10 nM and roughly 3 nM, respectively. Also, in experiment [5], binding was characterised by a dissociation constant (Kd) of 0.36 nM. For the same molecule, in experiment [7], the binding result is given as “binds”.

B3: humanized anti-GPRC5D antibody h2B1_H1/L2 (antibody, human IgG1, kappa, V domains shown)
VH: QVQLVESGGGLVKPSQTLSLTCTFSGFSLNTYDMGVGWIRQPPGKGLEWIGNIWWDDDKYYNPSLKSRVTISVDTSKNQASLKLSSVTAADTAVYYCARIETVRVSRKGFAHWGQGTLVTVSS
VL: DTVMTQSPDSLAVSLGERATINCKASQSVGINVDWYQQKPGQPPKLLIYGASNRHTGVPDRFSGSGFGTDFTLTISSLQAEDVAVYYCLQHGSIPPTFGQGTKVEIKR
notes: Human IgG1 / kappa
On to B3, for which the binding result in [8] is recorded as “binds”. Besides, in experiment [9], the concentration giving a half-maximal response (EC50 (read off the curve)) is roughly 4 nM.

B4: human chimeric 2B1 (antibody, human IgG1, V domains shown)
VH: QVTLKESGPGILQPSQTLSLTCTFSGFSLNTYDMGVGWIRQPSGKGLEWLANIWWDDDKYYNPSLRNRLTISKDTSNNQAFLKITNVDTADTATYYCARIETVRVSRKGFAHWGQGTLVTVSS
VL: ETVMTQSPTSMSTSIGERVTLNCKASQSVGINVDWYQQTPGQSPKLLIYGASNRHTGVPDRFTGSGFGRDFTLTISNVEAEDLAVYYCLQHGSIPPTFGGGTKLELKR
notes: Human IgG1 / kappa constant regions
In the case of B4, the binding result in [10] is reported as “no binding”. For the same molecule, in experiment [11], the 50% effective concentration (EC50 (read off the curve)) is roughly 10 nM.

B5: human GPRC5D amino-terminal peptide …(Biotin)-NH2, lacking an intramolecular disulfide bond (peptide)
peptide: MYKDCIESTGDYFLLCDAEGPWGIILE(Biotin)-NH2
modifications: cysteine pairing not given here
notes: Sigma-Aldrich synthetic peptide; also called amino-terminal peptide of human GPRC5D (disulfide bond absent)
For B5, the binding result in [12] and in experiment [14] was “no binding (tested: 5000 nM)” throughout. In experiment [13], the “IC50 (read off the curve)” value is roughly 50 nM.
